# In the supplement of paper PMC10724198:
# ± gives the standard deviation of the averaged measurements.
# System: Saccharomyces cerevisiae
# Assay: protein stability index of tFT-peptide fusion (C-terminal peptide) (PSI (0-1 scale)); higher = more stable (slower turnover)
# Conditions: genetic background: wild type; temperature: 30 C
# 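Note: PSI is a weighted mean of sequencing reads over stability bins, variants kept only with over 10 reads, mCherry proximal and sfGFP distal, peptide attached via GGGS linker.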
row,Sequence,protein stability index
1,RVEGKNNKEVCI,0.742 ± 0.079
2,VCGGVGGGDNGG,0.739 ± 0.036
3,GAGAHVPCSGRQ,0.6754 ± 0.0034
4,LCDLGLMLFPFV,0.666 ± 0.032
5,KTERRKEENTGE,0.665 ± 0.041
6,FGRSHPFWVVDV,0.697 ± 0.025
7,SLSAQTISDLSM,0.68 ± 0.049
8,PYWYPRASRGAL,0.699 ± 0.043
9,RGLLLSRRWFSP,0.641 ± 0.099
10,RFPLLPLLRPPP,0.6494 ± 0.0031
11,DRNVMNGFTRPG,0.659 ± 0.034
12,GTCWAGAMGVVG,0.714 ± 0.043
13,APFMSLSNTIAR,0.677 ± 0.026
14,KQTEKEPKKGES,0.7123 ± 0.0028
15,LPGSLISPSSPP,0.721 ± 0.021
16,ASPLTIHSPNLL,0.725 ± 0.064
17,LLDLVVTAMCVL,0.587 ± 0.032
18,LPPPTLASTPPP,0.77 ± 0.045
19,EYEDNRLDQHKV,0.725 ± 0.04
20,GVLRDRAFLTCA,0.618 ± 0.028
21,PPSPLPPTPSHS,0.737 ± 0.076
22,CIRSSSTEPCLP,0.685 ± 0.00086
23,YFGRGKLGVVRT,0.705 ± 0.013
24,LCPPPRPPRSHL,0.941 ± 0.039
25,GGQEEWFGGAWL,0.727 ± 0.036
26,PPPPLTPPHLSP,0.713 ± 0.039

row,Sequence,protein stability index
1,AAGRRGWGRGRG,0.788 ± 0.15
2,GCTTDQIENEIR,0.704 ± 0.033
3,ICRGGYELLELG,0.68 ± 0.026
4,SPAPLALSLRPP,0.668 ± 0.023
5,PPLPNLVYHLST,0.6195 ± 0.0054
6,LSGSSNRVLFDL,0.728 ± 0.053
7,WGGCGSVGRGGA,0.739 ± 0.052
8,CVSRLIPGDKHE,0.67 ± 0.032
9,LSVFDTSLFFSS,0.787 ± 0.099
10,SPTPINALRPPT,0.695 ± 0.032
11,KKKKKKKNKKRK,0.683 ± 0.019
12,GYRNIEYGFGSG,0.575 ± 0.061
13,SQPNRESQNTFN,0.711 ± 0.052
14,FELTLLSPVCFS,0.579 ± 0.0089
15,ARAPPSSYPPSG,0.66 ± 0.012
16,HPRRRPPPPSFP,0.611 ± 0.023
17,VPRLPPSPPPLP,0.779 ± 0.076
18,LNPPYLAPPPPF,0.739 ± 0.045
19,PVSPALTPFPPS,0.705 ± 0.043
20,SFRFFVSGFVVL,0.531 ± 0.009
21,GRAVCRALVEAR,0.552 ± 0.031
22,PPCLPPASRPVL,0.699 ± 0.0069
23,RGGAGGRKVSVG,0.651 ± 0.05
24,GKNKRERNRSSG,0.771 ± 0.14
25,KEQGEGKEKTDK,0.682 ± 0.063
26,TASKHINYKCLA,0.711 ± 0.16

row,Sequence,protein stability index
1,GGWGRGERRSRE,0.652 ± 0.045
2,SPPPFFSPSLPP,0.65 ± 0.09
3,MGVGINSGDKLC,0.667 ± 0.11
4,FRLYALAPHSPG,0.67 ± 0.027
5,SPPLPKFPPAIP,0.689 ± 0.021
6,RAVAGGPMPGSG,0.732 ± 0.044
7,CTMEDLGNCEGI,0.691 ± 0.0082
8,ESGGGGGGGRER,0.5726 ± 0.0016
9,WFRCCGVLGCLG,0.657 ± 0.019
10,KRRGECEGGRRG,0.672 ± 0.044
11,TPAPFSSHLVRR,0.723 ± 0.083
12,PLHPPPPPPPPT,0.69 ± 0.034
13,FWSCSTGHERVV,0.711 ± 0.03
14,AASGCGRPGCSA,0.663 ± 0.059
15,GISFFPVGGPLI,0.735 ± 0.062
16,EKKKNTQGIKKK,0.685 ± 0.011
17,SFRDRHRRLCDL,0.596 ± 0.035
18,GRYRRRLPLCRG,0.663 ± 0.055
19,HVGEVERGGMGG,0.7157 ± 0.0021
20,PAPRPPSPLSAP,0.687 ± 0.039
21,MWLGSGCWVNGL,0.735 ± 0.048
22,NKQNKKKKTNKK,0.6792 ± 0.0036
23,LPPPPHRSRPPP,0.66 ± 0.06
24,SGAGVNWGVGWG,0.714 ± 0.029
25,SCGWRGGWWVMG,0.691 ± 0.072
26,RSFPSPPASLLL,0.66 ± 0.062

row,Sequence,protein stability index
1,YFFQAFLLRTPL,0.642 ± 0.018
2,KNTKKKNRKKKN,0.7419 ± 0.0026
3,KASSGRASGSMA,0.673 ± 0.09
4,DSPPMTALITDF,0.697 ± 0.019
5,PPLDLPFPSRSI,0.745 ± 0.0078
6,DRGKGEKGKKAD,0.6797 ± 0.0036
7,VCTVSGFGVLGA,0.751 ± 0.15
8,VWRCWGGKGQDS,0.729 ± 0.037
9,PAPPPLLPPPPP,0.597 ± 0.016
10,FFVGAGVTEGLG,0.692 ± 0.033
11,VGGGGRARRRGS,0.701 ± 0.013
12,GGGGVVGGLLCS,0.761 ± 0.027
13,IPKDLSRLELYR,0.62 ± 0.071
14,HWPSGGGGPASH,0.753 ± 0.037
15,HCVSPKPFLKSE,0.695 ± 0.045
16,PLPSAPLLPPPP,0.686 ± 0.056
17,AGAGGRAMSDTS,0.693 ± 0.0087
18,LFPLSSPFPSTS,0.766 ± 0.23
19,HPTSPDPLVTPL,0.737 ± 0.068
20,VMLSYCHNLTKI,0.646 ± 0.074
21,GFQIVCSAGERV,0.611 ± 0.027
22,ESTNKKKEKKNR,0.661 ± 0.04
23,PRPLLVPPLFKS,0.768 ± 0.031
